Test results reported in patent US20070203071A1 (published 2007).
Non-standard residues stand in square brackets, D forms with d. No end group written: not given here. Bpa = N[C@@H](Cc1ccc(C(=O)c2ccccc2)cc1)C(=O)O; hArg = N=C(N)NCCCC[C@H](N)C(=O)O; Ac5c = NC1(C(=O)O)CCCC1; Deg = CCC(N)(CC)C(=O)O; desNH2 = X is (desNH2); Aib = CC(C)(N)C(=O)O

target: -; assay: competition binding, 125I-PTH(1-15) tracer, HKRK-B28 cells

IC50 [nM] | Binder
230 | [Deg]V[Deg]EIQLMHQ[hArg]AKW-NH2 (N-terminus assumed; SMILES CC[C@H](C)[C@H](NC(=O)[C@H](CCC(=O)O)NC(=O)C(CC)(CC)NC(=O)[C@@H](NC(=O)C(N)(CC)CC)C(C)C)C(=O)N[C@@H](CCC(N)=O)C(=O)N[C@@H](CC(C)C)C(=O)N[C@@H](CCSC)C(=O)N[C@@H](Cc1c[nH]cn1)C(=O)N[C@@H](CCC(N)=O)C(=O)N[C@@H](CCCCNC(=N)N)C(=O)N[C@@H](C)C(=O)N[C@@H](CCCCN)C(=O)N[C@@H](Cc1c[nH]c2ccccc12)C(N)=O) [Deg1,3]
840 | [Deg][Bpa][Deg]EIQLMHQ[hArg]AKW-NH2 (N-terminus assumed; SMILES CC[C@H](C)[C@H](NC(=O)[C@H](CCC(=O)O)NC(=O)C(CC)(CC)NC(=O)[C@H](Cc1ccc(C(=O)c2ccccc2)cc1)NC(=O)C(N)(CC)CC)C(=O)N[C@@H](CCC(N)=O)C(=O)N[C@@H](CC(C)C)C(=O)N[C@@H](CCSC)C(=O)N[C@@H](Cc1c[nH]cn1)C(=O)N[C@@H](CCC(N)=O)C(=O)N[C@@H](CCCCNC(=N)N)C(=O)N[C@@H](C)C(=O)N[C@@H](CCCCN)C(=O)N[C@@H](Cc1c[nH]c2ccccc12)C(N)=O) [Deg1,3,Bpa2]
30 | [Ac5c]V[Aib]EIQLMHQ[hArg]AKW-NH2 (N-terminus assumed; SMILES CC[C@H](C)[C@H](NC(=O)[C@H](CCC(=O)O)NC(=O)C(C)(C)NC(=O)[C@@H](NC(=O)C1(N)CCCC1)C(C)C)C(=O)N[C@@H](CCC(N)=O)C(=O)N[C@@H](CC(C)C)C(=O)N[C@@H](CCSC)C(=O)N[C@@H](Cc1c[nH]cn1)C(=O)N[C@@H](CCC(N)=O)C(=O)N[C@@H](CCCCNC(=N)N)C(=O)N[C@@H](C)C(=O)N[C@@H](CCCCN)C(=O)N[C@@H](Cc1c[nH]c2ccccc12)C(N)=O) [parent]
1800 | desNH2-[Ac5c]V[Aib]EIQLMHQ[hArg]AKW-NH2 [desNH2-AC5C1]
